Experimental data reported in US20190016800A1.

Biological target: cynomolgus monkey LAG-3 protein (Cat#LA3-C52A0, Acrobiosystems) (cynomolgus monkey)
Test: BLI ForteBio Octet RED 96, biotin labeled antibody on streptavidin sensor, antigen 3.125-100 nM, 1:1 fit

- Kd: 2.22 nM
Substance: LAG3.5 (BMS-986016, developed by Bristol-Myers Squibb) (antibody)
